Results on one substance are retold here after US20240108716A1.

For test [1], the target named is SARS-CoV-2 S peptide 106 (C-GGG-…) (SARS-CoV-2). Description: ELISA, control for CPMV106 on immobilised peptide. For orientation: ELISA stands for enzyme-linked immunosorbent assay.
Test [2] has as its target SARS-CoV-2 S peptide 153 (C-GGG-…) (SARS-CoV-2). The test is described as follows: ELISA, control for CPMV153 on immobilised peptide.
Test [3] addresses SARS-CoV-2 S peptide 386 (C-GGG-…) (SARS-CoV-2). The test is described as follows: ELISA, control for CPMV386 on immobilised peptide.
The target of test [4] is SARS-CoV-2 S peptide 420 (C-GGG-…) (SARS-CoV-2). Description: ELISA, control for CPMV420 on immobilised peptide.
Test [5] concerns the target SARS-CoV-2 S peptide 454 (C-GGG-…) (SARS-CoV-2). The test is described as follows: ELISA, control for CPMV454 on immobilised peptide.
Test [6] has as its target SARS-CoV-2 S peptide 460 (C-GGG-FRKSN) (SARS-CoV-2). Description: ELISA, control for CPMV460 on immobilised peptide.
Test [7] concerns the target SARS-CoV-2 S peptide 469 (C-GGG-…) (SARS-CoV-2). Description: ELISA, control for CPMV469 on immobilised peptide.
For test [8], the target named is SARS-CoV-2 S peptide 564 (C-GGG-…) (SARS-CoV-2). The test is described as follows: ELISA, control for CPMV564 on immobilised peptide.
Test [9] addresses SARS-CoV-2 S peptide 570 (C-GGG-…) (SARS-CoV-2). The test is described as follows: ELISA, control for CPMV570 on immobilised peptide.
In test [10] the target is SARS-CoV-2 S peptide 636 (C-GGG-…) (SARS-CoV-2). Description: ELISA, control for CPMV636 on immobilised peptide.
The target of test [11] is SARS-CoV-2 S peptide 820 (C-GGG-…) (SARS-CoV-2). The test is described as follows: ELISA, control for CPMV820 on immobilised peptide.
The target of test [12] is SARS-CoV-2 S peptide 826 (C-GGG-…) (SARS-CoV-2). Description: ELISA, control for CPMV826 on immobilised peptide.
Test [13] addresses SARS-CoV-2 S peptide 1159 (C-GGG-…) (SARS-CoV-2). The test is described as follows: ELISA, control for CPMV1159 on immobilised peptide.

As for “Control plasma of the peptide ELISA of the CPMV-based COVID-19 vaccines (antibody)”, the endpoint IgG titer (reciprocal dilution) in test [1] worked out at 400; in test [2], 2130; in test [3], 266; in [4], 400; in test [5], 100; in test [6] it was 1470. In addition, the endpoint IgG titer (reciprocal dilution) came to 1870 in test [7]; 1600 in [8]; 1600 in test [9]; 100 in test [10]; 800 in [11]; 1600 in test [12]. The same substance displayed an endpoint IgG titer (reciprocal dilution) in test [13] of 400.
